Source: patent publication US20120100141A1 (GlaxoSmithKline, published 2012)

Key:
Assay in all cases: melanophore functional bioassay, transfected cells (data not shown)
[1] = target: T1, Human NPY1R (human, UniProt P25929 1-384)
T1 construct: whole, on cells; also called NPY1R (human)
T1 sequence (looked up): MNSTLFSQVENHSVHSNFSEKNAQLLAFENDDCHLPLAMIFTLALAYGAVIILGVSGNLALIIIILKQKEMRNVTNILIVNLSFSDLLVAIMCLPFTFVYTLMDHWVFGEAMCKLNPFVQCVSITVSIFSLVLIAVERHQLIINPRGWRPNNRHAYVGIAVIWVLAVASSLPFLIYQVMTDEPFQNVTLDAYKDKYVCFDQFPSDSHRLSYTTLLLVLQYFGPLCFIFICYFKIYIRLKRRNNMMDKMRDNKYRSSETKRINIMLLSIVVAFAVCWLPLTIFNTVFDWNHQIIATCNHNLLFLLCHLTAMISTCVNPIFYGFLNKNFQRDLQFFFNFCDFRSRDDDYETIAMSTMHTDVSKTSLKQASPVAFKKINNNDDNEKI
Description: (§1) For assaying purposes cells were washed, trypsinized and resuspended in 0.7×EPG PBS at a concentration of 15×10⁶ cells per ml. 800 μl of cells were gently mixed with 20-40 μg of cDNA and incubated on ice for 20 minutes. […] After 2 hours they were placed in a sealed container in the incubator overnight (25° C., 0% CO2). The following day media was aspirated and 25 μl MAB (Melanophore Assay Buffer) containing 1% DMSO and 10 nM melatonin was added to each well. Cells were incubated for one hour and basal transmittance was measured on a SLT Spectra plate reader at 620 nm. Next, a dilution series (12 point series using 3 fold dilution intervals in MAB) containing 25 μl of a 2× concentration peptides and standards were added directly to each well. Standards included melatonin 10 nM, MSH 200 nM and MAB and were used to establish assay system Minimum, Maximum, and basal response levels, respectively. Following addition of peptides and standards, plates were incubated for 1 hour and transmittance measured as before. Data was analyzed using Robosage (version 7.3.2) by calculating (1−Tf/Ti) where Ti is initial baseline read, and Tf is the response read.

[2] = target: T2, Mouse NPY1R (mouse, UniProt Q04573 1-382)
T2 construct: whole, on cells; also called NPY1R (mouse)
T2 sequence (looked up): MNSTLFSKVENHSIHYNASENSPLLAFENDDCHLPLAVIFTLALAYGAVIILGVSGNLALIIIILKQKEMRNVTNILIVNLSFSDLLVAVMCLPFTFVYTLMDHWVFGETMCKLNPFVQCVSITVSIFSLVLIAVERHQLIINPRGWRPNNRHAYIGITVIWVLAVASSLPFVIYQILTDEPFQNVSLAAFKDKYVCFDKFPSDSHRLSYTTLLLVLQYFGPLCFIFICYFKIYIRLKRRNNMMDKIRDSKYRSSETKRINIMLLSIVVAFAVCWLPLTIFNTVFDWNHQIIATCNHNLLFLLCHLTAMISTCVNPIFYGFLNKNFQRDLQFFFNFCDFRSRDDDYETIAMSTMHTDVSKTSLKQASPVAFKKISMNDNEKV
Description: as §1

[3] = target: T3, Mouse NPY4R (mouse, UniProt Q61041 1-375)
T3 construct: whole, on cells; also called NPY4R (mouse)
T3 sequence (Q61041 whole entry): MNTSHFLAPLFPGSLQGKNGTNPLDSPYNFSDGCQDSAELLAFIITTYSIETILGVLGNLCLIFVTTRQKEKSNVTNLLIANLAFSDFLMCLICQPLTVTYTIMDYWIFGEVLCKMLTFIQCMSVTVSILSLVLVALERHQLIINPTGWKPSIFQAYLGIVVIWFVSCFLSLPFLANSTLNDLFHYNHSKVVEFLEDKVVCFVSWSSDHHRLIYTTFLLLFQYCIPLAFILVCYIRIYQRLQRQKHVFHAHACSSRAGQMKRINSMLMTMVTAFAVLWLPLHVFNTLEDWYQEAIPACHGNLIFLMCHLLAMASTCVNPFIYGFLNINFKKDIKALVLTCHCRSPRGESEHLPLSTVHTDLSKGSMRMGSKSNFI
Description: as §1

[4] = target: T4, Human NPY2R (human, UniProt P49146 1-381)
T4 construct: whole, on cells; also called NPY2R (human)
T4 sequence (looked up): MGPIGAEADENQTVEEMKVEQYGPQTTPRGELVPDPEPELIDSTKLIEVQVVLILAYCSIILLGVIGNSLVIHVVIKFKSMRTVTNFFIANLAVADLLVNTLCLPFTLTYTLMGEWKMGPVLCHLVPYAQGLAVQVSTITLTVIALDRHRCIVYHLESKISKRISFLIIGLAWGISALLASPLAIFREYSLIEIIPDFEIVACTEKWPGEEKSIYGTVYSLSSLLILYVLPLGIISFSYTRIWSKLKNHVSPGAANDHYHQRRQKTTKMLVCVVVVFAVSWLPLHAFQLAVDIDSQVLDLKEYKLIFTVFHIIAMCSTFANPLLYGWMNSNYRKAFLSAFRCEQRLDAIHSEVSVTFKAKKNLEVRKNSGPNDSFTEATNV
Description: as §1

[5] = target: T5, Mouse NPY2R (mouse, UniProt P97295 1-381)
T5 construct: whole, on cells; also called NPY2R (mouse)
T5 sequence (looked up): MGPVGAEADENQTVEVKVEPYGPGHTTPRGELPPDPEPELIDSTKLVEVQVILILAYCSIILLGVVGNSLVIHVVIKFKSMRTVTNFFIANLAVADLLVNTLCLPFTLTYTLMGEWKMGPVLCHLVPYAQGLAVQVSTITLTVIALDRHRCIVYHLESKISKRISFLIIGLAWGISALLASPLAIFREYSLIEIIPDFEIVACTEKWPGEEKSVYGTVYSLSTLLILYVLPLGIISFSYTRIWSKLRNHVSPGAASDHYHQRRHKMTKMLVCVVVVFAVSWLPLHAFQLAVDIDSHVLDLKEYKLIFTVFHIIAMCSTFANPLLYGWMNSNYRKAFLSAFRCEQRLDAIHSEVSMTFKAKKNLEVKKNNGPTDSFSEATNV
Description: as §1

[6] = target: T6, Mouse NPY5R (mouse, UniProt O70342 1-466)
T6 construct: whole, on cells; also called NPY5R (mouse)
T6 sequence (looked up): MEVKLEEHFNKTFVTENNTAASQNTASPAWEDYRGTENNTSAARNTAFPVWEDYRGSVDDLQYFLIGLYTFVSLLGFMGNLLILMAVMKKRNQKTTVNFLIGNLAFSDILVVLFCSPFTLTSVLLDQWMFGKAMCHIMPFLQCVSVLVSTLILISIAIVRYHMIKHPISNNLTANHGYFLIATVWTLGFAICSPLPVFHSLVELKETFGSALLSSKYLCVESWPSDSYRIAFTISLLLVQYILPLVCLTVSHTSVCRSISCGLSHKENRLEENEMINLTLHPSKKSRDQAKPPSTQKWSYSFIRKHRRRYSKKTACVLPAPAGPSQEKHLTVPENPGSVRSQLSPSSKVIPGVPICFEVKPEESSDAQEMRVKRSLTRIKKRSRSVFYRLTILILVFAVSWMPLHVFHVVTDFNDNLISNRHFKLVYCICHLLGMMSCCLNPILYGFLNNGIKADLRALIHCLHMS
Description: as §1

[7] = target: T7, Human NPY5R (human, UniProt Q15761 1-445)
T7 construct: whole, on cells; also called NPY5R (human)
T7 sequence (looked up): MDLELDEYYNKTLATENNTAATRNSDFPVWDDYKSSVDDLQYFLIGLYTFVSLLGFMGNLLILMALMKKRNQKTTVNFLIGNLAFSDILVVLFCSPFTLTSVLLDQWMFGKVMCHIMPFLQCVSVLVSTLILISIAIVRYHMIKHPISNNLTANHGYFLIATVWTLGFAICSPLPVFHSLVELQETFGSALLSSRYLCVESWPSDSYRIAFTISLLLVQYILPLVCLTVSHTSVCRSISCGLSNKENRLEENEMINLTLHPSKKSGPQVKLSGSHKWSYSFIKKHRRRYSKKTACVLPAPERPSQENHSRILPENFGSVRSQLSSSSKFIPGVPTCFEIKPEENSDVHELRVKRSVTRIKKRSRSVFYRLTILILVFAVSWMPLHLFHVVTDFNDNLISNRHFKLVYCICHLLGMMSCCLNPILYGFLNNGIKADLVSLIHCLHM
Description: as §1

[8] = target: T8, Human NPY4R (human, UniProt P50391 1-375)
T8 construct: whole, on cells; also called NPY4R (human)
T8 sequence (P50391 whole entry): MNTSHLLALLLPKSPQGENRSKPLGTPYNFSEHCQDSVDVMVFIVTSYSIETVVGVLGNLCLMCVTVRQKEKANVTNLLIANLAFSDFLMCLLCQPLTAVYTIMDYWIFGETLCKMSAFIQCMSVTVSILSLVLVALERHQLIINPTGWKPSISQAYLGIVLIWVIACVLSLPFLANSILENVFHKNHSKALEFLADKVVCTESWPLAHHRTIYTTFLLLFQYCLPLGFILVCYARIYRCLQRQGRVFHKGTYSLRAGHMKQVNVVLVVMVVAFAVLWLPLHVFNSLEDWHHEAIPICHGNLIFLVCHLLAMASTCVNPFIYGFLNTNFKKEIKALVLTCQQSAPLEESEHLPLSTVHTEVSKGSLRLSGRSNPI
Description: as §1

Measured: binding result

B1: PYY (3-36) DOM7h-14-10 (R108C) AlbudAb peptide conjugate DMS7605 (other)
chain: DIQMTQSPSSLSASVGDRVTITCRASQWIGSQLSWYQQKPGKAPKLLIMWRSSLQSGVPSRFSGSGSGTDFTLTISSLQPEDFATYYCAQGLRHPKTFGQGTKVEIKC
peptide: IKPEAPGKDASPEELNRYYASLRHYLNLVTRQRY
modifications: C-terminal amide; lysine at position 10 derivatised with the 4 repeat PEG linker to the dAb cysteine; free C-terminal cysteine (R108C) coupled through maleimide to a 4 repeat PEG linker that is attached to the lysine at position 10 of the PYY peptide
notes: Chemical conjugate, not a genetic fusion; The dAb was made in E. coli, the peptide and PEG linker by chemical synthesis; also called DMS7167:PYY3-36; PYY(3-36) AlbudAb
binds: all assays above
